Laboratory results reported in patent US20050003548A1.

Molecular target: human CD40 on cells (293.CD40 cells, Namalwa cells, human monocyte-derived dendritic cells) (human) (UniProt P25942)
Test: cell-based or functional assay

Sequence of UniProt P25942 (P25942 21-277): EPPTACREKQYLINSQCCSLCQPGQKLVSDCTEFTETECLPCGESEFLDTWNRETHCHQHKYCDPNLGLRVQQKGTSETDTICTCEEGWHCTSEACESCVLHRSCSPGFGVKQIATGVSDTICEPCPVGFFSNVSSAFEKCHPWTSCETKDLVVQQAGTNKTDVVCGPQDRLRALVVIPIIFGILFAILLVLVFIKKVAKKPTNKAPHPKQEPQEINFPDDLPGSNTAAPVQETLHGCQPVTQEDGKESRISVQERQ

Substance | reporter gene delivery to human monocyte-derived dendritic cells by Ad5.DR-LL-Cd complexed with the ligand, fold over Ad5.DR
Fc-G28.5 (fusion of anti-CD40 single chain antibody G28.5 with the Fc domain of human immunoglobulin and a six-histidine sequence) (Fc fusion) | 28 to 35 fold
Fc-CD40L (TNF-like domain of human CD40 Ligand fused to the hinge region of the Fc domain of human IgG gamma 1) (from UniProt P29965 116-261) (Fc fusion) | 28 to 35 fold
